Test results: PMC10863982 (2024)

Molecular target: T1, GST-CTU2 (Arabidopsis thaliana (Mouse-ear cress), UniProt O65628)
T1 chain: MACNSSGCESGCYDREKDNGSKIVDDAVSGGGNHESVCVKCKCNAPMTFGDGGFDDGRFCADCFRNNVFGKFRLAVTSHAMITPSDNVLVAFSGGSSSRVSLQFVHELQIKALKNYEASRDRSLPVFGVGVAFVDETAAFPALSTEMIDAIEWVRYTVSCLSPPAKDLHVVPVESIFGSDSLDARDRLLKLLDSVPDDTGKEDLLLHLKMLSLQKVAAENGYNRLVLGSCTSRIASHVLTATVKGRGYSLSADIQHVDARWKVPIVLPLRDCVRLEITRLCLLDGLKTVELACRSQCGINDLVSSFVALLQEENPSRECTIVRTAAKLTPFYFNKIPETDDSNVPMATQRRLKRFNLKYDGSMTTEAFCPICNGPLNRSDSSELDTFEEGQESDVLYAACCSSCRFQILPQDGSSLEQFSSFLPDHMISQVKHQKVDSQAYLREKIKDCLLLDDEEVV
Assay: GST pull-down

binding result: binds
B1: ROL5-His (protein)
chain: MEAKNKKAVASRLCCLCNLRRPVLKRPKTLQQICRECFYEVFEEEIHQVIVQNRLFKSGERVAIGASGGKDSTVLAYVLSELNRRHNYGLDLFLLSIDEGITGYRDDSLETVKRNEVQYGLPLKIVSYKDLYGWTMDEIVKMIGLKNNCTFCGVFRRQALDRGAALLKVEKLVTGHNADDIAETVLLNILRGDIARLSRCTSITTGEDGPIPRCKPFKYTYEKEIVMYAYFKKLDYFSTECIYSPNAYRGFAREFIKDLERIRPRAILDIIKSGEDFRIATTTKMPEQGTCERCGYISSQKWCKACVLLEGLNRGLPKMGIGRPRGVNGDHNKETKKPGSVAKSIESKQCGSLDF
